Assay results reported in PMC9482650, “Quantitative fragmentomics allow affinity mapping of interactomes” (Nature Communications, 2022).
Residue numbers refer to the chain shown, from its start.

Key:
Assay in all cases: holdup assay
Parameters in all cases: key: below the threshold = too weak to quantify, mostly under pKd 3.1 to 4
[1] = target: IL16_4, Q14005
[2] = target: T1, LIN7A, O14910
T1 sequence (O14910 103-200, limits assumed, looked up): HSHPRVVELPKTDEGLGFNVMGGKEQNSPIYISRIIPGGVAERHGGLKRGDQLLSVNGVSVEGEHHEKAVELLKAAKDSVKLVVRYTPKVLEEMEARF

[3] = target: T2, CARD11, Q9BXL7
T2 sequence (Q9BXL7 662-765, limits assumed, looked up): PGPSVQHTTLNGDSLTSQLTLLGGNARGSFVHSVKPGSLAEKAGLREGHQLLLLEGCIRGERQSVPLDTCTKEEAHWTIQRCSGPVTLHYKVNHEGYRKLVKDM

[4] = target: T3, HTRA3, P83110
T3 sequence (P83110 354-453, limits assumed, looked up): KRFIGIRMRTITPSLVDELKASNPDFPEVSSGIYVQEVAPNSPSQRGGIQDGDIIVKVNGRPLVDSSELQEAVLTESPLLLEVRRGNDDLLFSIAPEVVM

[5] = target: T4, SNTG1, Q9NSN8
T4 sequence (Q9NSN8 52-150, limits assumed, looked up): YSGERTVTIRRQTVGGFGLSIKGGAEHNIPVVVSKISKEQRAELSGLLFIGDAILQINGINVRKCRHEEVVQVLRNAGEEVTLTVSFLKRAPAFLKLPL

[6] = target: PICK1, Q9NRD5
Sequence of PICK1, Q9NRD5 (Q9NRD5 17-115): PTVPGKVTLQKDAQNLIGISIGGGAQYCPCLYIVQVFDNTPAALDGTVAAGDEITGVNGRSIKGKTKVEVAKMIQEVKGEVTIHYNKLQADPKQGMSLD

[7] = target: TJP2_1, Q9UDY2
Sequence of TJP2_1, Q9UDY2 (Q9UDY2 24-128): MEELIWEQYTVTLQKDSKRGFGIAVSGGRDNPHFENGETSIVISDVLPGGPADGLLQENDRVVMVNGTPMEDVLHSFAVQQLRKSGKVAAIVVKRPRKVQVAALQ

[8] = target: T5, MPDZ_5, O75970
T5 sequence (O75970 695-796, limits assumed, looked up): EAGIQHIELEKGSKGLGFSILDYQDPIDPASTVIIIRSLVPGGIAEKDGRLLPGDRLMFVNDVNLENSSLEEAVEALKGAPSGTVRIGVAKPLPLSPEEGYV

[9] = target: T6, GRIP1_5, Q9Y3R0
T6 sequence (Q9Y3R0 568-668, limits assumed, looked up): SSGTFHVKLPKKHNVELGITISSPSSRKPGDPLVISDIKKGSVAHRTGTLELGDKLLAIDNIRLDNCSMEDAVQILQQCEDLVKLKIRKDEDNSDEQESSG

[10] = target: MAGI1_1, Q96QZ7
Sequence of MAGI1_1, Q96QZ7 (Q96QZ7 1-106): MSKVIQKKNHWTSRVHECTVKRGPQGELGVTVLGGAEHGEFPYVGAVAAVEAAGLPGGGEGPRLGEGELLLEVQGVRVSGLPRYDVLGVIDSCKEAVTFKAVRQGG

[11] = target: MAGI2_6, Q86UL8
Sequence of MAGI2_6, Q86UL8 (Q86UL8 1141-1229): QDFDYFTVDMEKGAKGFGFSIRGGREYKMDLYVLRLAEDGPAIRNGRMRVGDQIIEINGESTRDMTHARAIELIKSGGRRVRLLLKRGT

[12] = target: Inadl_1, Q8NI35
Sequence of Inadl_1, Q8NI35 (Q8NI35 113-229): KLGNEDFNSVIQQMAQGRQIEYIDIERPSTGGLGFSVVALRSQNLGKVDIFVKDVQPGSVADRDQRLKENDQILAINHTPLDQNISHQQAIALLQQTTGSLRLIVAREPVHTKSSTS

[13] = target: T7, ARHGAP21, Q5T5U3
T7 sequence (Q5T5U3 45-169, limits assumed, looked up): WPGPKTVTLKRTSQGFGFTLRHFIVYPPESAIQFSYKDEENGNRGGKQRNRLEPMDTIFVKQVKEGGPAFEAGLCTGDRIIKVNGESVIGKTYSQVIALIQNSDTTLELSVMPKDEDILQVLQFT

[14] = target: T8, TIAM2, Q8IVF5
T8 sequence (Q8IVF5 885-986, limits assumed, looked up): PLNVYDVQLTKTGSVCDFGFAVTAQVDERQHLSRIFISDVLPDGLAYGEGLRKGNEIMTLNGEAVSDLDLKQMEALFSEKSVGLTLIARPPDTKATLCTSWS

[15] = target: Inadl_9, Q8NI35
Sequence of Inadl_9, Q8NI35 (Q8NI35 1530-1615): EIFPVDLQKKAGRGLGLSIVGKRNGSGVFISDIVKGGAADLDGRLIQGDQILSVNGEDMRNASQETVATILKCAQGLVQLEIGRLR

[16] = target: T9, SNTB1, Q13884
T9 sequence (Q13884 107-205, limits assumed, looked up): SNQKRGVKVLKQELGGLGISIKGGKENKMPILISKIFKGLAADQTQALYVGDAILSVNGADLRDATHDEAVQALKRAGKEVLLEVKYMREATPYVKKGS

[17] = target: GRASP, Q7Z6J2
Sequence of GRASP, Q7Z6J2 (Q7Z6J2 96-193): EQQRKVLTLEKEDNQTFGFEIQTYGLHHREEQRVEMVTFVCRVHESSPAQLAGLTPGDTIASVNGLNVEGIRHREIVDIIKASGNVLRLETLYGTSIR

[18] = target: GRID2IP_1, A4D2P6
Sequence of GRID2IP_1, A4D2P6 (A4D2P6 1-87): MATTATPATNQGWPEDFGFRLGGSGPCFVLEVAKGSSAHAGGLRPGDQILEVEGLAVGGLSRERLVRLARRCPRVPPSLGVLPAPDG

[19] = target: T10, NHERF3_4, Q5T2W1
T10 sequence (Q5T2W1 373-468, limits assumed, looked up): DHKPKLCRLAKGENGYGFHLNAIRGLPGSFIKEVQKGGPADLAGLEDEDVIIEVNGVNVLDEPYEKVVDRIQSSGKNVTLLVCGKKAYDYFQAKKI

[20] = target: T11, LIN7B, Q9HAP6
T11 sequence (Q9HAP6 88-185, limits assumed, looked up): T1 sequence (O14910 103-200, limits assumed, looked up) with S2A, V20I, I35V, E42D, H65Q, K77Q, D78G, K89R

[21] = target: T12, LRRC7, Q96NW7
T12 sequence (Q96NW7 1440-1537, limits assumed, looked up): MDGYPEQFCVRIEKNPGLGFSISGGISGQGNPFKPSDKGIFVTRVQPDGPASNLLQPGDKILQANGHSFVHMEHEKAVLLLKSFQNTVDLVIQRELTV

[22] = target: AHNAK1, Q09666
Sequence of AHNAK1, Q09666 (Q09666 4-100): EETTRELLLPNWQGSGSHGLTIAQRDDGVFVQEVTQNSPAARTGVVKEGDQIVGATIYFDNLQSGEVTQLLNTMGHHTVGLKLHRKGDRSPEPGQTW

[23] = target: PDZRN4_1, Q6ZMN7
Sequence of PDZRN4_1, Q6ZMN7 (Q6ZMN7 213-318): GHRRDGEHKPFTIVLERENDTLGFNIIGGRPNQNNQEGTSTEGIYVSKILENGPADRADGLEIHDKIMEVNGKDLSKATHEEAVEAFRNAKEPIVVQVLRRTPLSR

[24] = target: T13, LNX2_3, Q8N448
T13 sequence (Q8N448 463-564, limits assumed, looked up): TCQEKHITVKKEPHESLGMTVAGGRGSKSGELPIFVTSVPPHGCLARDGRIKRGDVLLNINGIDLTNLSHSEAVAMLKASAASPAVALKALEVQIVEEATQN

[25] = plain residues with an end cap or a label only (N-terminal biotin on a linker: ahx)
[26] = plain residues with an end cap or a label only (N-terminal biotin on a linker: ttds)

Sequence of IL16_4, Q14005 (Q14005 1229-1329): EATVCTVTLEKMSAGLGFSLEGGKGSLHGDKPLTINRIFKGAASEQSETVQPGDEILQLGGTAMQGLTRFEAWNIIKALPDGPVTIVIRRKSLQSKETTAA

For KKNKDKEYYV [NRXN1, Q9ULB1], which pKd [1, 25] is on record?
Its pKd is “below the threshold”.

What about the pKd [2, 25] of the same binder?
Its pKd is “below the threshold”.

And the pKd [3, 25]?
The pKd was “below the threshold”.

What about the pKd [4, 25] of the same binder?
The pKd was 4.2.

What about the pKd [5, 25] of the same binder?
The pKd was “below the threshold”.

And the pKd [6, 25]?
The pKd was “below the threshold”.

What about the pKd [7, 25] of the same binder?
Its pKd is “below the threshold”.

And the pKd [8, 25]?
The pKd was 3.85.

What about the pKd [9, 25] of the same binder?
Its pKd is “below the threshold”.

And the pKd [10, 25]?
Its pKd is “below the threshold”.

And the pKd [11, 25]?
Its pKd is “below the threshold”.

And the pKd [12, 25]?
The pKd was “below the threshold”.

And the pKd [13, 25]?
The pKd was “below the threshold”.

What about the pKd [14, 25] of the same binder?
Its pKd is 4.11.

What about the pKd [15, 25] of the same binder?
Its pKd is 3.97.

What about the pKd [16, 25] of the same binder?
The pKd was “below the threshold”.

What about the pKd [17, 25] of the same binder?
Its pKd is “below the threshold”.

And the pKd [18, 25]?
Its pKd is “below the threshold”.

What about the pKd [19, 25] of the same binder?
Its pKd is “below the threshold”.

And the pKd [20, 25]?
Its pKd is “below the threshold”.

What about the pKd [21, 25] of the same binder?
Its pKd is “below the threshold”.

What about the pKd [22, 25] of the same binder?
Its pKd is “below the threshold”.

What about the pKd [23, 25] of the same binder?
Its pKd is “below the threshold”.

What about the pKd [24, 25] of the same binder?
Its pKd is “below the threshold”.

For LCKSHAFSHV [PDLIM7, Q9NR12;Q9NR12-1], which pKd [1, 25] is on record?
The pKd was “below the threshold”.

And the pKd [2, 25]?
Its pKd is “below the threshold”.

And the pKd [3, 25]?
The pKd was “below the threshold”.

And the pKd [4, 25]?
The pKd was “below the threshold”.

What about the pKd [5, 25] of the same binder?
Its pKd is “below the threshold”.

What about the pKd [6, 25] of the same binder?
Its pKd is “below the threshold”.

And the pKd [7, 25]?
Its pKd is 4.09.

What about the pKd [8, 25] of the same binder?
Its pKd is “below the threshold”.

And the pKd [9, 25]?
The pKd was “below the threshold”.

And the pKd [10, 25]?
The pKd was “below the threshold”.

What about the pKd [12, 25] of the same binder?
The pKd was “below the threshold”.

What about the pKd [13, 25] of the same binder?
Its pKd is “below the threshold”.

And the pKd [15, 25]?
Its pKd is “below the threshold”.

What about the pKd [16, 25] of the same binder?
The pKd was “below the threshold”.

And the pKd [18, 25]?
The pKd was “below the threshold”.

What about the pKd [19, 25] of the same binder?
The pKd was “below the threshold”.

What about the pKd [20, 25] of the same binder?
Its pKd is “below the threshold”.

What about the pKd [21, 25] of the same binder?
The pKd was “below the threshold”.

And the pKd [22, 25]?
Its pKd is “below the threshold”.

And the pKd [23, 25]?
The pKd was “below the threshold”.

And the pKd [24, 25]?
The pKd was “below the threshold”.

With RRVRKLPSTTL [RPS6KA1, Q15418] as the binder, how does the pKd [1, 26] read?
Its pKd is “below the threshold”.

What about the pKd [2, 26] of the same binder?
Its pKd is “below the threshold”.

What about the pKd [3, 26] of the same binder?
The pKd was “below the threshold”.

And the pKd [4, 26]?
Its pKd is “below the threshold”.

What about the pKd [5, 26] of the same binder?
Its pKd is 3.88.

What about the pKd [6, 26] of the same binder?
The pKd was “below the threshold”.

And the pKd [7, 26]?
Its pKd is “below the threshold”.

And the pKd [8, 26]?
The pKd was 3.61.

And the pKd [9, 26]?
Its pKd is 3.52.

And the pKd [10, 26]?
The pKd was 3.64.

And the pKd [11, 26]?
The pKd was “below the threshold”.

What about the pKd [12, 26] of the same binder?
The pKd was “below the threshold”.

What about the pKd [13, 26] of the same binder?
The pKd was “below the threshold”.

What about the pKd [14, 26] of the same binder?
Its pKd is 3.5.

What about the pKd [15, 26] of the same binder?
The pKd was “below the threshold”.

What about the pKd [16, 26] of the same binder?
The pKd was 4.14.

And the pKd [17, 26]?
Its pKd is 4.17.

What about the pKd [18, 26] of the same binder?
Its pKd is “below the threshold”.

And the pKd [19, 26]?
The pKd was 3.65.

And the pKd [20, 26]?
Its pKd is “below the threshold”.

And the pKd [21, 26]?
Its pKd is 3.55.

What about the pKd [22, 26] of the same binder?
Its pKd is “below the threshold”.

What about the pKd [23, 26] of the same binder?
Its pKd is 4.13.

And the pKd [24, 26]?
Its pKd is 3.71.
